Reference: patent US20250136677A1 (ZOETIS SERVICES, published 2025)

Columns and labels:
[1] = molecular target: T1, mutant feline IL-31 15H05 protein (Feline_IL31_15H05_mutant) (feline); assay: indirect ELISA, IL-31 protein coated
T1 construct: also called feline 15H05 mutant; 15H05 IL-31 mutant
T1 chain: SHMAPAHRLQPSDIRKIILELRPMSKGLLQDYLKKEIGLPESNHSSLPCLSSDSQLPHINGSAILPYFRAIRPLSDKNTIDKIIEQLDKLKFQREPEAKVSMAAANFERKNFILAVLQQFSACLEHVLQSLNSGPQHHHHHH
Experimental: (§1) For the indirect ELISA method, antibody binding to wildtype and feline IL-31 15H05 mutant proteins was assessed. All nine canine monoclonal antibodies (ZIL1, ZIL8, ZIL8, ZIL11, ZIL69, ZIL94, ZIL154, ZIL159, and ZIL171) were capable of binding to wildtype feline IL-31 and binding was impacted by mutations in the mAb 15H05 epitope region confirming the correct binding phenotype determined during the initial screening used to identify them. In comparison, the 11E12 antibody bound to the wild-type feline IL-31 and its binding was not impacted by the mutations in the 15H05 epitope region as evidenced by the data in FIG. 4. To confirm binding, biacore analysis was performed using canine, feline, equine, human, feline 15H05 mutant, and feline 11E12 mutant IL-31 proteins as surfaces and a single test concentration of antibody. Similar to ELISA observations, all antibodies tested bound to wildtype feline IL-31. In agreement with the data described above in this section, mouse antibodies 11E12 and 15H05 both bound to canine and feline IL-31 surfaces. Three additional antibodies where shown to have this dual binding property, ZIL69 (partial canine binding), ZIL94, and ZIL159. From this group of nine fully canine antibodies, only ZIL1 and ZIL9 cross-reacted with equine IL-31. Of note, antibody 15H05 was the only one of all assayed herein that bound to canine, feline, and equine IL-31 indicating some level of epitope conservation across the three species. In contrast, none of the antibodies described herein bound to human IL-31. Additional biacore surfaces were used to verify ELISA observations showing differential binding of antibodies to wildtype feline IL-31 and two proteins with mutations in the 15H05 (15H05 mutant) or 11E12 (11E12 mutant) epitopes. […] In agreement with the ELISA results, all fully canine antibodies were impacted by the 15H05 mutation with the exception of ZIL94, ZIL154, and ZIL171 (partially affected). Differing results can be attributed to differences in the two assay methodologies.

[2] = molecular target: T2, wildtype feline IL-31 protein (Feline_IL31_wildtype) (feline); assay: indirect ELISA, IL-31 protein coated
T2 construct: Full length feline IL-31 with C-terminal His tag, secreted from ExpiCHO cells; also called fIL-31
T2 chain: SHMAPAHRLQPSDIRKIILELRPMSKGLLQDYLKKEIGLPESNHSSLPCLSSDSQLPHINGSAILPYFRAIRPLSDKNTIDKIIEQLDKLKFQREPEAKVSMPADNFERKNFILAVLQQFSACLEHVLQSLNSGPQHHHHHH
Experimental: as §1

[3] = molecular target: T2, wildtype feline IL-31 protein …; assay: cell-based or functional assay
[4] = molecular target: T3, canine IL-31 protein (Canine_IL31) (canine); assay: cell-based or functional assay
T3 chain: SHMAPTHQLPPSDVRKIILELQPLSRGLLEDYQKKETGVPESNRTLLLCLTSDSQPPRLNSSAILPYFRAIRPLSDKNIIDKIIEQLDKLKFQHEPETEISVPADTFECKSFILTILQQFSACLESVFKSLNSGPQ

[5] = molecular target: T1, mutant feline IL-31 15H05 protein …; assay: SPR (Biacore), IL-31 protein as surface capture; Biacore KD of Table 1, mutant IL-31 as surface capture; weak binding, about 78 times weaker than on wildtype feline
Experimental: (§2) The affinity with which candidate mAbs bind canine and feline IL-31 was determined using surface plasmon resonance (SPR) on a Biacore system (Biocore Life Sciences (GE Healthcare), Uppsala, Sweden). To avoid affinity differences associated with differential surface preparation that can occur when immobilizing antibodies to surfaces; a strategy was employed where IL-31 was directly conjugated to the surface. Immobilization was obtained by amine coupling 5 μg/mL IL-31 using N-hydroxysuccinimide (NHS)/1-Ethyl-3-(3-dimethylaminopropyl) carbodiimide (EDC) chemistry. Chips were quenched with ethanolamine and the affinity with which all candidate mAbs bound to the immobilized IL-31 was evaluated. All curves were fit to a 1:1 model. […] Results for affinity measurements are described herein.
(§3) Table 1 below describes the results for biacore analysis using multiple species of IL-31 protein as a surface capture.

[6] = molecular target: T4, equine IL-31 protein (Equine_IL31) (equine); assay: SPR (Biacore), IL-31 protein as surface capture
T4 construct: Recombinant equine IL-31
T4 chain: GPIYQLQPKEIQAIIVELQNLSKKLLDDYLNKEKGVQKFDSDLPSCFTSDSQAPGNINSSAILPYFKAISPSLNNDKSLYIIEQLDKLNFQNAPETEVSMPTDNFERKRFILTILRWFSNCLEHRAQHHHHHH
Experimental: as §2, §3

[7] = molecular target: T5, mutant feline IL-31 11E12 protein (Feline_IL31_11E12_mutant) (feline); assay: SPR (Biacore), IL-31 protein as surface capture
T5 construct: also called feline 11E12 mutant; 11E12 IL-31 mutant
T5 chain: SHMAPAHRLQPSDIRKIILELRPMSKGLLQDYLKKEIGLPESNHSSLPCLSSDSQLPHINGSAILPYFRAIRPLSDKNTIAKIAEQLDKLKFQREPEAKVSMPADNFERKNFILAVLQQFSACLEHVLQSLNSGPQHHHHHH
Experimental: as §2, §3

[8] = molecular target: T2, wildtype feline IL-31 protein …; assay: SPR (Biacore), IL-31 protein as surface capture
Experimental: as §2, §3

B1: mouse anti IL-31 antibody 15H05 (antibody, mouse IgG1, kappa)
heavy: QVQLQQSAAELARPGASVKMSCKTSGYTFTSYTIHWIKQRPGQGLEWIGNINPTSGYTENNQRFKDKTTLTVDRSSNTAYLQLHSLTSEDSAVYFCARWGFKYDGEWSFDVWGAGTTVTVSSKTTPPSVYPLAPGSAAQTNSMVTLGCLVKGYFPEPVTVTWNSGSLSSGVHTFPAVLESDLYTLSSSVTVPSSPRPSETVTCNVAHPASSTKVDKKIVPRDCGCKPCICTVPEVSSVFIFPPKPKDVLTITLTPKVTCVVVDISKDDPEVQFSWFVDDVEVHTAQTQPREEQFNSTFRSVSELPIMHQDWLNGKEFKCRVNSAAFPAPIEKTISKTKGRPKAPQVYTIPPPKEQMAKDKVSLTCMITDFFPEDITVEWQWNGQPAENYKNTQPIMNTNGSYFVYSKLNVQKSNWEAGNTFTCSVLHEGLHNHHTEKSLSHSPGK
light: DIQMNQSPSSLSASLGDTITVTCRASQGISIWLSWYQQKPGNIPKVLINKASNLHIGVPPRFSGSGSGTHFTLTITSLQPEDIATYYCLQSQTYPLTFGGGTKLEINADAAPTVSIFPPSSEQLTSGGASVVCFLNNFYPKDINVKWKIDGSERQNGVLNSWTDQDSKDSTYSMSSTLTLTKDEYERHNSYTCEATHKTSTSPIVKSFNRNEC
notes: Mouse hybridoma antibody, IgG1 kappa; also called Mu-15H05; MU-15H05
Q: What does the source list for B1?
A: ELISA OD [1]: 0.05 OD; ELISA OD [2]: 1.94 OD; IC50, inhibition of feline IL-31-induced STAT3 phosphorylation, canine DH82 cells [3]: 2.7 mg/L; IC50, inhibition of feline IL-31-induced STAT3 phosphorylation, feline FCWF4 cells [3]: 4.26 mg/L; Inhibition of IL-31 induced pSTAT3 IC50 (µg/ml), Canine IL-31 on Canine DH82 cells [4]: 11.2 µg/ml; Kd [5]: 23.9 nM; Kd [6]: 0.306 nM; Kd [7]: 11.5 nM; Kd [8]: 0.306 nM
